# Bridge positions count the residues as written; N and C are the ends. Ends that are not written are not given here.
# Key:
# [1] = target: T1, Shh-Flag (Homo sapiens, UniProt Q15465); assay: Peptide competition ELISA for Hhip binding to Shh-Flag
# T1 construct: Shh-Flag (residues 25-197 with C-terminal Flag-Tag); His6 (N); made in house; host or cells: Shh-Flag: E. coli Rosetta 2; Hhip: Tni insect cells
# Experimental: In a competition assay, a peptide derived from the Hhip1β12 L2 loop competed with Hipβ1 for Shh binding. Briefly, 96-well Nunc-Immuno MaxiSorp plates (Nalge Nunc International) were coated with 100 μl of anti-Flag M2 antibody (Sigma) at 5 μg/ml in 50 mM sodium carbonate buffer pH 9.6 at 4° C. overnight. Plates were blocked and washed as described for Shh competition ELISA followed by incubation with 100 μL of Shh-Flag at 50 μg/ml for 1 h. After plate washing a serial dilution of Hip-L2 peptide ([…]) (SEQ ID NO:46) starting at 1.2 mM (1:3 dilution) containing 800 nM Hhip1β12 in a final volume of 100 μL was added to the wells to compete for binding to Shh-Flag. After incubation for 1 hr, wells were washed and incubated with anti-His-HRP conjugate (Qiagen, 1:2000 dilution) in blocking buffer. Plate was developed and the data were fit to a 4-parameter equation and the IC50 calculated as described above; assays were carried out in triplicate.
# [2] = target: T2, Shh (Homo sapiens, UniProt Q15465); assay: NMR HSQC spectroscopy of labeled Shh with L2 loop peptides; assay type: binding; settings: peptide 2 mM, 90 μM ^15N-Shh
# T2 construct: yielding Shh (residues 29-197) lacking the His6-Tag; His6 (N, cleaved yes); made in house; host or cells: E. coli Rosetta 2, minimal/M9 medium with 15NH4Cl
# Excerpt: Shh is in the same orientation as in the Hhip-Shh complex in Panel A. Zn^2+ and Ca^2+ cations are shown. […] Surface representation of Shh with residues within 4.5 Å of Hhip (shaded gray) and Cdon (hatched areas). Area within dotted boarder indicates the boundaries of the Cdon footprint, which overlaps the Hhip binding surface. […] Shh histidine residues are shown as sticks with nitrogen atoms shaded dark. The Hhip L2 loop is shown in transparent surface and Zn^2+ cation is shown. Histidine 35 is not shown since the ordered portion of the Shh structure begins at L40. […] The spectral region of the histidine side chains is shown. […] The average mean Shh649 fluorescence intensity (MFI) of two independent dilution series was plotted versus protein concentration, with error bars denoting standard deviations. Ctrl refers to the His-6 (SEQ ID NO: 87) tagged HGF β protein. […] Shh649 (0.33 nM) was preincubated with 56 nM (170-fold excess) of Hhipβ12 wildtype or L2 mutant proteins, 5E1 or controls then bound to Ptch1 cells (black) or 293 cells (gray), washed and analyzed by FACS. Shh649 binding to Ptch1 cells in the absence of inhibitors was normalized to 100% and the data expressed as a percentage of this signal (average of two independent duplicates with standard deviations). Ctrl and CtrlFc refer to HGF β and the IgG1 isotype control Trastuzumab, respectively. […]
# T1 sequence (Q15465 25-197): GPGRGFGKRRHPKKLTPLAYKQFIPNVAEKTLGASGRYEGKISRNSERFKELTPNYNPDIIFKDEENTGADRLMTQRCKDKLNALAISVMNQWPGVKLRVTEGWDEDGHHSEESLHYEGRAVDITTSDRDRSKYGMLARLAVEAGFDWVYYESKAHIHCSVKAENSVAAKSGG
# T2 sequence (Q15465 29-197): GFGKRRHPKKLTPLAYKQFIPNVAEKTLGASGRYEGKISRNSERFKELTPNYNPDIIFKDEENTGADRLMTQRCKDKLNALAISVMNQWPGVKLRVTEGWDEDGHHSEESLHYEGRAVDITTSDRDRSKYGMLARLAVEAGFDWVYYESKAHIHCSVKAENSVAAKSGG
sequence,measurement,setting,value
GCQLTKQRLVDADGIINPCG (disulfide 2-19 (inferred); listed as Homo sapiens) [Ptch L2 peptide],competition with Hipβ1 for Shh binding (in words),[1],unable to compete with Hipβ1 for Shh binding
same,"binding to Shh by ^15N, ^1H HSQC (in words)",[2],binds Shh in a manner similar to that of the Hhip1β12 L2 peptide

# From patent publication US8623997B2, “Variant Hhip1 protein and methods and uses thereof” (Curis, Inc., priority 2008, dated 2014)
